{"source": "patent US7144576", "molecular_target": "bovine transducin (UniProt P04695)", "sequence (P04695 2-350)": "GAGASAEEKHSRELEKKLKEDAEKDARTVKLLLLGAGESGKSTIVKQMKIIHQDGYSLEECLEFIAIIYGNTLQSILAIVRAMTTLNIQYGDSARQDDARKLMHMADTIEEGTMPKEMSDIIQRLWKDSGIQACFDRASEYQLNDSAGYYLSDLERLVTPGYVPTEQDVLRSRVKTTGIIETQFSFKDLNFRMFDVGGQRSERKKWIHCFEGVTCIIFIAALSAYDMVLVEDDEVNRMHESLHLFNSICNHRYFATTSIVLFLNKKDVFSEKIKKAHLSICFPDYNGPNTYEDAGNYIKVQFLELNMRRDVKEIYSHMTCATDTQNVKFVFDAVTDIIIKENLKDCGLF", "data": [{"substance": "recombinant S1 protein of native sequence from pPTXS1/1", "values": [{"measurement": "ADP-ribosyltransferase activity (autoradiogram of SDS-PAGE, [32P]NAD)", "value": "The radioactive band at 39 Kd is the transducin subunit which has been ribosylated"}]}]}
